Five molecules from US20210277068A1 (SHANXI KANGBAO BIOLOGICAL PRODUCT, published 2021) can be followed below.

In series [1] the target is T1, N39 (HIV-1, N-terminal acetyl (Ac-); C-terminal amide (-NH2)).
T1 peptide: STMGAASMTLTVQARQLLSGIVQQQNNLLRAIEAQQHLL
Kind of series: circular dichroism of the 1:1 mixture with N39, 10 µM each in PBS pH 7.2. Background: Circular dichroism is the unequal absorption of left and right circularly polarised light.

Series [2] deals with T1, N39. In words: circular dichroism temperature scan at 220 nm of the 1:1 mixture with N39, 10 µM each in PBS pH 7.2.
For series [3], the target named is T1, N39. Kind of series: circular dichroism temperature scan at 220 nm of the 1:1 mixture with N39, 10 µM each in PBS pH 7.2; difference against LP-52.
The target in series [4] is gp41 of the envelope protein of HIV-1 strain JRCSF (HIV-1 strain JRCSF). Kind of series: cell-based or functional assay.
Series [5] has as its target gp41 of the envelope protein (Env) of the D36G mutant of HIV-1 strain NL4-3 (HIV-1 strain NL4-3). Kind of series: cell-based or functional assay.
Series [6] concerns the target gp41 of the envelope protein (Env) of HIV-1 strain HXB2 (HIV-1 strain HXB2, UniProt P04578 33-856). In words: cell-based or functional assay.

Where “and” joins values, the source holds several entries; their conditions need not be identical. Equal entries are not always repeated. Ends that are not written are not given here. * marks the point of attachment. Stearoyl = CCCCCCCCCCCCCCCCCC(=O)*; Palmitoyl = CCCCCCCCCCCCCCCC(=O)*

Ac-YTSLIHSLIEESQNQQEKNEQELLELDK (not fully specified (residue 28, C-terminus), also called T-20-based lipopeptide) [LP-40]: the “helix content of the complex” value in series [1] stood at 57.7%. Moreover, the “Tm value of the complex” value in series [2] stood at 51.3 °C.

B1: LP-69 (peptide)
peptide: Ac-IEELLKKAEEQQKKNEEELKK(Palmitoyl)-NH2
SMILES: CCCCCCCCCCCCCCCC(=O)NCCCC[C@H](NC(=O)[C@H](CCCCN)NC(=O)[C@H](CC(C)C)NC(=O)[C@H](CCC(=O)O)NC(=O)[C@H](CCC(=O)O)NC(=O)[C@H](CCC(=O)O)NC(=O)[C@H](CC(N)=O)NC(=O)[C@H](CCCCN)NC(=O)[C@H](CCCCN)NC(=O)[C@H](CCC(N)=O)NC(=O)[C@H](CCC(N)=O)NC(=O)[C@H](CCC(=O)O)NC(=O)[C@H](CCC(=O)O)NC(=O)[C@H](C)NC(=O)[C@H](CCCCN)NC(=O)[C@H](CCCCN)NC(=O)[C@H](CC(C)C)NC(=O)[C@H](CC(C)C)NC(=O)[C@H](CCC(=O)O)NC(=O)[C@H](CCC(=O)O)NC(=O)[C@@H](NC(C)=O)[C@@H](C)CC)C(N)=O
notes: Residues 1-21 follow from the statement that LP-69 is LP-65 (24 residues) without its C-terminal LEK
For the molecule B1, the “Tm value lower than that of the LP-52 by” value in series [3] turned out to be 28.1 °C. Besides, the “Tm value of the complex” value in series [2] was found to be 51 °C.

B2: LP-65 (peptide)
peptide: Ac-IEELLKKAEEQQKKNEEELKKLEK(Palmitoyl)-NH2
SMILES: CCCCCCCCCCCCCCCC(=O)NCCCC[C@H](NC(=O)[C@H](CCC(=O)O)NC(=O)[C@H](CC(C)C)NC(=O)[C@H](CCCCN)NC(=O)[C@H](CCCCN)NC(=O)[C@H](CC(C)C)NC(=O)[C@H](CCC(=O)O)NC(=O)[C@H](CCC(=O)O)NC(=O)[C@H](CCC(=O)O)NC(=O)[C@H](CC(N)=O)NC(=O)[C@H](CCCCN)NC(=O)[C@H](CCCCN)NC(=O)[C@H](CCC(N)=O)NC(=O)[C@H](CCC(N)=O)NC(=O)[C@H](CCC(=O)O)NC(=O)[C@H](CCC(=O)O)NC(=O)[C@H](C)NC(=O)[C@H](CCCCN)NC(=O)[C@H](CCCCN)NC(=O)[C@H](CC(C)C)NC(=O)[C@H](CC(C)C)NC(=O)[C@H](CCC(=O)O)NC(=O)[C@H](CCC(=O)O)NC(=O)[C@@H](NC(C)=O)[C@@H](C)CC)C(N)=O
notes: N-terminally truncated, based on LP-52; 24 amino acids
For B2, in series [1], the “helix content of the complex” value stood at 63%. Also, the “Tm value of the complex” value in series [2] is > 70 °C and 72.1 °C.
Ac-WEQKIEELLKKAEEQQKKNEEELKKLEK(Stearoyl)-NH2 [LP-80]: the “IC50 for inhibiting HIV-1 strain JRCSF” value in series [4] came out at 2 pM. Also, the “IC50 for inhibiting HIV-1 strain NL4-3” value in series [5] worked out at 2 pM. The “Tm value of the complex” value in series [2] came to 79 °C.

B3: LP-50 (peptide)
peptide: Ac-YTSLIEELIKKSEEQQKKNEEELKKLEK(Palmitoyl)-NH2
SMILES: CCCCCCCCCCCCCCCC(=O)NCCCC[C@H](NC(=O)[C@H](CCC(=O)O)NC(=O)[C@H](CC(C)C)NC(=O)[C@H](CCCCN)NC(=O)[C@H](CCCCN)NC(=O)[C@H](CC(C)C)NC(=O)[C@H](CCC(=O)O)NC(=O)[C@H](CCC(=O)O)NC(=O)[C@H](CCC(=O)O)NC(=O)[C@H](CC(N)=O)NC(=O)[C@H](CCCCN)NC(=O)[C@H](CCCCN)NC(=O)[C@H](CCC(N)=O)NC(=O)[C@H](CCC(N)=O)NC(=O)[C@H](CCC(=O)O)NC(=O)[C@H](CCC(=O)O)NC(=O)[C@H](CO)NC(=O)[C@H](CCCCN)NC(=O)[C@H](CCCCN)NC(=O)[C@@H](NC(=O)[C@H](CC(C)C)NC(=O)[C@H](CCC(=O)O)NC(=O)[C@H](CCC(=O)O)NC(=O)[C@@H](NC(=O)[C@H](CC(C)C)NC(=O)[C@H](CO)NC(=O)[C@@H](NC(=O)[C@H](Cc1ccc(O)cc1)NC(C)=O)[C@@H](C)O)[C@@H](C)CC)[C@@H](C)CC)C(N)=O
notes: LP-40 with EE**KK ion pairs introduced; also called P50 with C16
For B3, in series [4], the “IC50 for inhibiting replicative virus (replication of JRCSF)” value is 23 pM. Further, the “IC50 for inhibiting cell fusion (HXB2-cell fusion)” value in series [6] came out at 21 pM. Further, the “IC50 for inhibiting pseudovirus (entry of NL4-3)” value in series [5] was 7 pM. The “Tm value of the complex” value in series [2] is 63.3 °C.
